Assay results reported in the supplement of paper PMC7125110.
± gives the standard error. For part of these data: Fewer inactive variants are shown than the library holds.

B1: glmS ribozyme (parent)
chain: AUAAAAGCGCCAGAACUACAGAAAUGUAGUUGACGAGGAGGAGGUUUAUCGAAUUUUCGGCGGAUGCCUCCAAA

Tests used:
Conditions in all cases: with glucosamine-6-phosphate
[1] = variants of: B1; test: kcat; higher = faster cleavage; RNA array
Method in brief: (§1)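 A hybridised Cy3 probe tracked barcoded ribozyme variants, transcribed in situ by E. coli RNA polymerase on sequenced MiSeq chips, at 37 °C. The variants received 40 μM to 10 mM glucosamine-6-phosphate in HEPES/KCl/Mg(OAc)2 buffer. kobs came from decay fits and kcat and KM from weighted Michaelis–Menten fits.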

[2] = variants of: B1; test: KM; higher = weaker cofactor use; RNA array
Method in brief: as §1

[3] = variants of: B1; test: self-cleavage kobs at 40 uM GlcN6P; higher = faster cleavage; RNA array
Method in brief: as §1

[4] = variants of: B1; test: self-cleavage kobs at 160 uM GlcN6P; higher = faster cleavage; RNA array
Method in brief: as §1

[5] = variants of: B1; test: self-cleavage kobs at 640 uM GlcN6P; higher = faster cleavage; RNA array
Method in brief: as §1

[6] = variants of: B1; test: self-cleavage kobs at 2500 uM GlcN6P; higher = faster cleavage; RNA array
Method in brief: as §1

[7] = variants of: B1; test: self-cleavage kobs at 10000 uM GlcN6P; higher = faster cleavage; RNA array
Method in brief: as §1

| Variant | kcat [1] [s⁻¹] | KM [2] [µM] | self-cleavage kobs at 40 uM GlcN6P [3] [s⁻¹] | self-cleavage kobs at 160 uM GlcN6P [4] [s⁻¹] | self-cleavage kobs at 640 uM GlcN6P [5] [s⁻¹] | self-cleavage kobs at 2500 uM GlcN6P [6] [s⁻¹] | self-cleavage kobs at 10000 uM GlcN6P [7] [s⁻¹] |
| --- | --- | --- | --- | --- | --- | --- | --- |
| C16G C61A | 1.02e-05 ± 1.1e-06 | – | – | – | – | – | – |
| C16G G29A | 0.00419 ± 0.00058 | 1940 ± 370 | 9.85e-05 ± 1.6e-05 | 0.000295 ± 5.2e-05 | 0.00103 ± 0.00015 | 0.00212 ± 0.00039 | 0.00387 ± 0.00066 |
| C16U G37C | 1.3e-05 ± 3e-06 | – | < 1e-05 | – | – | – | – |
| C16A A53U | 0.00183 ± 0.0008 | – | – | – | 0.000241 ± 6.3e-05 | 0.00116 ± 0.00029 | 0.00118 ± 0.00035 |
| A15U C70U | 0.00472 ± 0.0018 | 1330 ± 650 | 0.000195 ± 1.7e-05 | 0.000378 ± 4.7e-05 | 0.00147 ± 0.00031 | 0.00286 ± 0.00048 | 0.00469 ± 0.00065 |
| A15U C70A | 6.56e-05 ± 1e-05 | – | – | – | 3.49e-05 ± 1.2e-05 | 6.73e-05 ± 7e-06 | 4.87e-05 ± 1.1e-05 |
| C16A G37A | 7.68e-05 ± 2.6e-06 | 999 ± 160 | – | – | – | 5.79e-05 ± 1.2e-05 | 6.89e-05 ± 9.4e-06 |
| C16U C61G | < 1e-05 | – | – | – | – | – | – |
| A15U U46G | 0.000901 ± 0.00012 | 1650 ± 380 | – | 6.81e-05 ± 1e-05 | 0.000292 ± 3.4e-05 | 0.000642 ± 8.4e-05 | 0.000725 ± 7.1e-05 |
| C16U G40U | 0.00189 ± 0.00089 | – | 0.000134 ± 2e-05 | 0.000209 ± 5e-05 | 0.00095 ± 0.00016 | 0.00106 ± 0.00024 | 0.00317 ± 0.0006 |
| C16G A53G | 0.00701 ± 0.0012 | 2160 ± 510 | 0.000168 ± 3.2e-05 | 0.000453 ± 7.3e-05 | 0.00151 ± 0.00025 | 0.00339 ± 0.00099 | 0.0061 ± 0.0011 |
| A15U G63A | < 1e-05 | – | – | – | – | – | < 1e-05 |
| C16G G66A | 0.00183 ± 0.0004 | 1140 ± 380 | 7.41e-05 ± 1.1e-05 | 0.000199 ± 5.6e-05 | 0.000593 ± 8.9e-05 | 0.00111 ± 0.00019 | 0.00218 ± 0.00038 |
| C16U G38U C71U | 1.14e-05 ± 2e-06 | – | – | – | – | – | – |
| C16G U69A | 4.79e-05 ± 1e-05 | – | – | – | 6.57e-05 ± 1.6e-05 | 5.05e-05 ± 1.2e-05 | 3.59e-05 ± 1.2e-05 |
| C16A A48C | < 1e-05 | – | < 1e-05 | – | – | – | – |
| C16A G40U | 9.3e-05 ± 2.3e-05 | – | – | – | 4.49e-05 ± 1.2e-05 | 0.000122 ± 1.6e-05 | 7.36e-05 ± 1.2e-05 |
| C16A U56C | 0.000253 ± 8.5e-06 | 1940 ± 160 | < 1e-05 | – | 6.38e-05 ± 1.8e-05 | 0.000144 ± 3.2e-05 | 0.000211 ± 3.4e-05 |
